Data reported in paper PMC9628201.

Molecular target: SARS-CoV-2 WA.1 Spike-6P trimer (SARS-CoV-2 (WA.1))
Experiment: cryo-EM structure

Substance: SARS-CoV-2 WA.1 Spike-6P trimer
- stoichiometry N: 3
